Read-outs that look alike come from different tables or passages of the source.
Columns and labels:
Aro2 [1] = target: T1, Aro2 (Homo sapiens, UniProt P27694;P15927;P35244 1-616;1-270;1-121, F269A;F386A); experiment: smTIRFM
Aro2 [2] = target: T1, Aro2; experiment: smTIRFM; remark: listed apart in the source
AroA = AroA (Homo sapiens, UniProt P27694;P15927;P35244 1-616;1-270;1-121, F238A;F269A); experiment: smTIRFM
AroB = AroB (Homo sapiens, UniProt P27694;P15927;P35244 1-616;1-270;1-121, W361A;F386A); experiment: smTIRFM
Chain of AroB (P27694 whole entry W361A/F386A, chain 1 of 3): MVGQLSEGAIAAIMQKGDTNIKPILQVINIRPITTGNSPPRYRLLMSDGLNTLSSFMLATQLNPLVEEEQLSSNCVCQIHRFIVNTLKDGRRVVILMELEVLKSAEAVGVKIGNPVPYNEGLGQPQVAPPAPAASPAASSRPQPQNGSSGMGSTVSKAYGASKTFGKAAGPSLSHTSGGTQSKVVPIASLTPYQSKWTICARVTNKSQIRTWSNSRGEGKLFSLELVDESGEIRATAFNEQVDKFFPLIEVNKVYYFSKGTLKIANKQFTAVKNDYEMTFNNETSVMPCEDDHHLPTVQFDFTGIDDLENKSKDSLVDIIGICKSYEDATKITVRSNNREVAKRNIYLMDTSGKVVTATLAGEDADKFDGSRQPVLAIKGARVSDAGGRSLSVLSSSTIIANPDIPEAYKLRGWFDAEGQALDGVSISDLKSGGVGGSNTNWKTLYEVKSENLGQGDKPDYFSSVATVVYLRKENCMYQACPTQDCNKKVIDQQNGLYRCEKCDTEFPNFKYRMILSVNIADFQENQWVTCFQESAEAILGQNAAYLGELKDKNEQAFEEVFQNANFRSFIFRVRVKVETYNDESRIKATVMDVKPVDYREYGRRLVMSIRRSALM
Chain of AroB (P15927 whole entry, chain 2 of 3): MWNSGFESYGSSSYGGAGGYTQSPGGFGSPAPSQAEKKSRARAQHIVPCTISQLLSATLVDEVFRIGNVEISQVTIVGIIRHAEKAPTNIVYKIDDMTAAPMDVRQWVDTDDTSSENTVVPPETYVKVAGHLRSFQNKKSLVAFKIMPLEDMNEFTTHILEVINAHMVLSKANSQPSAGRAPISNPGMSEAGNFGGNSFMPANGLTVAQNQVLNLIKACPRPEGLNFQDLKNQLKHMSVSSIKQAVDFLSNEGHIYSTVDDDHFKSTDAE
Chain of AroB (P35244 whole entry, chain 3 of 3): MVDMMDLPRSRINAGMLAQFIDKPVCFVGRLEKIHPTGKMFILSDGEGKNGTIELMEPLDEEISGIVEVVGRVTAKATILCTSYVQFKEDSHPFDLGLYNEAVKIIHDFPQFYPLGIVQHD

[3] = target: RPA (wild-type, biotinylated on RPA3) (Homo sapiens, UniProt P27694;P15927;P35244 1-616;1-270;1-121); experiment: EMSA
Chain of RPA (wild-type, biotinylated on RPA3) (P27694 whole entry, chain 1 of 3): as the sequence (P27694 whole entry W361A/F386A, chain 1 of 3) above, with A361W, A386F counted along it
Chain of RPA (wild-type, biotinylated on RPA3) (P15927 whole entry, chain 2 of 3): as the sequence (P15927 whole entry, chain 2 of 3) above
Chain of RPA (wild-type, biotinylated on RPA3) (P35244 whole entry, chain 3 of 3): as the sequence (P35244 whole entry, chain 3 of 3) above

T1 sequence (P27694 whole entry F269A/F386A, chain 1 of 3): as the sequence (P27694 whole entry W361A/F386A, chain 1 of 3) above, with F269A, A361W counted along it
T1 sequence (P15927 whole entry, chain 2 of 3): as the sequence (P15927 whole entry, chain 2 of 3) above
T1 sequence (P35244 whole entry, chain 3 of 3): as the sequence (P35244 whole entry, chain 3 of 3) above
Chain of AroA (P27694 whole entry F238A/F269A, chain 1 of 3): as the sequence (P27694 whole entry W361A/F386A, chain 1 of 3) above, with F238A, F269A, A361W, A386F counted along it
Chain of AroA (P15927 whole entry, chain 2 of 3): as the sequence (P15927 whole entry, chain 2 of 3) above
Chain of AroA (P35244 whole entry, chain 3 of 3): as the sequence (P35244 whole entry, chain 3 of 3) above

TTTTTTTTTTTTTTTTTTTT (ssDNA) [dT20]
binding result (Aro2 [1]): binds

TTTTTTTTTTTTTTT (ssDNA) [dT15]
binding result (Aro2 [2]): no binding
binding result (AroA): no binding
binding result (AroB): no binding

B1: 20 nt Bubble DNA (mixed)
DNA 1: CCCTAGATACCAGTAAGCCTAAGGCCGGATCTCGGGCCATCCATGTACGC
DNA 2: GCGTACATGGATGGCTTAGAGCTTAATTCCGAATCTACTGGTATCTAGGG
binding result [3]: binds

— article PMC4937323
